What was measured:
CCR3 = target: T1, CCR3 (Homo sapiens, UniProt P51677); details: Detheux et al., J. Exp. Med. 192:1501-1508 (2000); cited from earlier work
T1 sequence (P51677 1-355): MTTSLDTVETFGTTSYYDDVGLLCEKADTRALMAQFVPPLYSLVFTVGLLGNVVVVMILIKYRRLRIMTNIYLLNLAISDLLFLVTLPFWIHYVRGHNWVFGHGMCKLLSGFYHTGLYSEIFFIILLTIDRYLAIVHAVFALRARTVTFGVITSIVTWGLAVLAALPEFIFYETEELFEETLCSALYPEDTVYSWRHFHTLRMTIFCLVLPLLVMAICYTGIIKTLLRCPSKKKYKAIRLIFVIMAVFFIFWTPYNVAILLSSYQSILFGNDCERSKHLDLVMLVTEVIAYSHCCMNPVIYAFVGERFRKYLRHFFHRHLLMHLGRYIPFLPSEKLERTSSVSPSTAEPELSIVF

CCR1 = target: T2, CCR1 (Homo sapiens, UniProt P32246); details: Detheux et al., J. Exp. Med. 192:1501-1508 (2000); cited from earlier work
T2 sequence (P32246 1-355): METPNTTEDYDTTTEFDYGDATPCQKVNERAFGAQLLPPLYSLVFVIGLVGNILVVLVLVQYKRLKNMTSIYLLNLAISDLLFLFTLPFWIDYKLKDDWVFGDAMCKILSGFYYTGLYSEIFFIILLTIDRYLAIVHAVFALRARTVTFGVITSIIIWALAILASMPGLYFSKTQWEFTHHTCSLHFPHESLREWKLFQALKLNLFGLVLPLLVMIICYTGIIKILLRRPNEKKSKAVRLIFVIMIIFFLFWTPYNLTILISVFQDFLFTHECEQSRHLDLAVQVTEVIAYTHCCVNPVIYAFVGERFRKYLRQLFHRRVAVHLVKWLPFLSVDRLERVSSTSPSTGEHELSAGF

CCR5 = CCR5 (Homo sapiens, UniProt P51681); details: Detheux et al., J. Exp. Med. 192:1501-1508 (2000); cited from earlier work
Chain of CCR5 (P51681 whole entry, species assumed): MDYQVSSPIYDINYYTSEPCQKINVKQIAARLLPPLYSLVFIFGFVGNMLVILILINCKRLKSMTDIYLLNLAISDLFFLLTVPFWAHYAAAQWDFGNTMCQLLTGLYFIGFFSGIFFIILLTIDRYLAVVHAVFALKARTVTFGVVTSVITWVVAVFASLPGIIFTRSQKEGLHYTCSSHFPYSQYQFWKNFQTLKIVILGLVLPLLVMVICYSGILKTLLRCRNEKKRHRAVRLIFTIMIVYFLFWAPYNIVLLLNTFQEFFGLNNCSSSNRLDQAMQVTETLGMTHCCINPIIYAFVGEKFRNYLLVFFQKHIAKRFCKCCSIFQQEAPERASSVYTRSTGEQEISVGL

monocytes = details: cited from earlier work
human monocytes = assay: Cytokine release from human monocytes (ELISA of culture supernatants); assay type: cell-based; details: human monocytes (1×10^6), 1 day incubation
Experimental: To evaluate the in vitro activity of Ckb1(G-28-N93) and Ckb1(G-28-N93) fused to human serum albumin, proteins produced by these constructs were incubated with human monocytes (1×10^6) for 1 day. Culture supernatants were collected and analyzed by ELISA for cytokine content.

[1] = system: Jaks-STATS signal transduction pathway; assay: Jurkat:GAS-SEAP reporter assay for T-cell activity; assay type: cell-based; details: Jurkat:GAS-SEAP cells; 100 Unit/ml; positive control wells; 48 hrs
Experimental: The following protocol is used to assess T-cell activity by identifying factors, and determining whether a fusion protein (e.g. albumin fusion protein) of the invention proliferates and/or differentiates T-cells. T-cell activity is assessed using the GAS/SEAP/Neo construct produced in Example 29. Thus, factors that increase SEAP activity indicate the ability to activate the Jaks-STATS signal transduction pathway. The T-cell used in this assay is Jurkat T-cells (ATCC Accession No. TIB-152), although Molt-3 cells (ATCC Accession No. CRL-1552) and Molt-4 cells (ATCC Accession No. CRL-1582) cells can also be used.
Jurkat T-cells are lymphoblastic CD4^+ Th1 helper cells. In order to generate stable cell lines, approximately 2 million Jurkat cells are transfected with the GAS-SEAP/neo vector using DMRIE-C (Life Technologies)(transfection procedure described below). The transfected cells are seeded to a density of approximately 20,000 cells per well and transfectants resistant to 1 mg/ml genticin selected. Resistant colonies are expanded and then tested for their response to increasing concentrations of interferon gamma.
Specifically, the following protocol will yield sufficient cells for 75 wells containing 200 ul of cells. Thus, it is either scaled up, or performed in multiple to generate sufficient cells for multiple 96 well plates. […]

[2] = system: Jaks-STATS signal transduction pathway; assay: GAS-SEAP/U937 reporter assay for myeloid activity; assay type: cell-based; details: GAS-SEAP/U937 cells; 100 Unit/ml; positive control wells; 48 to 72 hr
Experimental: The following protocol is used to assess myeloid activity of a fusion protein (e.g. albumin fusion protein) of the present invention by determining whether the fusion protein proliferates and/or differentiates myeloid cells. Myeloid cell activity is assessed using the GAS/SEAP/Neo construct produced in Example 29. Thus, factors that increase SEAP activity indicate the ability to activate the Jaks-STATS signal transduction pathway. The myeloid cell used in this assay is U937, a pre-monocyte cell line, although TF-1, HL60, or KG1 can be used.
To transiently transfect U937 cells with the GAS/SEAP/Neo construct produced in Example 29, a DEAE-Dextran method (Kharbanda et. al., 1994, Cell Growth & Differentiation, 5:259-265) is used. First, harvest 2×10^7 U937 cells and wash with PBS. The U937 cells are usually grown in RPMI 1640 medium containing 10% heat-inactivated fetal bovine serum (FBS) supplemented with 100 units/ml penicillin and […] streptomycin.
Next, suspend the cells in 1 ml of 20 mM Tris-HCl (pH 7.4) buffer containing 0.5 mg/ml DEAE-Dextran, 8 ug GAS-SEAP2 plasmid DNA, 140 mM NaCl, 5 mM KCl, 375 uM Na2HPO4.7H2O, 1 mM MgCl2, and 675 uM CaCl2. Incubate at 37 degrees C. for 45 min.
Wash the cells with RPMI 1640 medium containing 10% FBS and then resuspend in 10 ml complete medium and incubate at 37 degree C. for 36 hr. […]

B1: Ckb1 [9-74]: N-terminal deletion variant of Ckb1 consisting of amino acids 9-74 of SEQ ID NO:2 (Detheux et al.) (protein, listed as Homo Sapiens)
chain: PFFLLITIALGTKTESSSRGPYHPSECCFTYTTYKIPRQRIMDYYETNSQCSKPGIVFITKRGHSV
CCR3
  agonism of CCR3: potent agonist
CCR1
  agonism / activation of CCR1: potent agonist
CCR5
  agonism of CCR5: potent agonist

B2: Ckb1: human chemokine beta 1; mature form of 74 amino acids, amino acids 1-74 of SEQ ID NO:2 (protein, listed as Homo Sapiens)
chain: MKISVAAIPFFLLITIALGTKTESSSRGPYHPSECCFTYTTYKIPRQRIMDYYETNSQCSKPGIVFITKRGHSV
monocytes
  activation of monocytes: weak activator
CCR1
  agonism / activation of CCR1: activates CCR1 at high (supraphysiological) concentrations

B3: Ckb1(G28-N93): Ckb1 polypeptide, residues G28-N93, not fused (protein)
chain: GPYHPSECCFTYTTYKIPRQRIMDYYETNSQCSKPGIVFITKRGHSVCTNPSDKWVQDYIKDMKEN
Human monocytes
  release of IL-1β: induced release
  release of IL-6: induced release
  release of TNF-alpha: induced release

B4: IFN-g: IFN family ligand; positive control known to activate Jurkat T cells and U937 cells (protein, UniProt P01579 24-161, looked up)
Interferon gamma: QDPYVKEAENLKKYFNAGHSDVADNGTLFLGILKNWKEESDRKIMQSQIVSFYFKLFKNFKDDQSIQKSVETIKEDMNVKFFNSNKKKRDDFEKLTNYSVTDLNVQRKAIHELIQVMAELSPAAKTGKRKRSQMLFRG
[1]
  induction (SEAP reporter activity): Over 30 fold
[2]
  induction (SEAP reporter activity): Over 30 fold

Source: patent US20030143191A1, “Chemokine beta-1 fusion proteins” (priority 2001, published 2003)
